Reference: patent CN113214400A (FUKANG SHANGHAI HEALTH TECH CO LTD, dated 2021)

Tests used:
[1] = target: T1, 人PD-L1 (全长, 表达于CHO-K1细胞 WBP315.CHO-K1.hPro1.C11) (human, UniProt Q9NZQ7 19-290); test: flow cytometry on CHO-K1 cells expressing human PD-L1
T1 construct: whole, on cells; also called human PD-L1; hPD-L1

[2] = target: T2, 小鼠PD-L1 (全长, 表达于293F细胞 WBP315.293F.mPro1.C1) (mouse, UniProt Q9EP73 19-290); test: flow cytometry on 293F cells expressing mouse PD-L1
T2 construct: whole, on cells; also called mouse PD-L1
T2 sequence (Q9EP73 19-290): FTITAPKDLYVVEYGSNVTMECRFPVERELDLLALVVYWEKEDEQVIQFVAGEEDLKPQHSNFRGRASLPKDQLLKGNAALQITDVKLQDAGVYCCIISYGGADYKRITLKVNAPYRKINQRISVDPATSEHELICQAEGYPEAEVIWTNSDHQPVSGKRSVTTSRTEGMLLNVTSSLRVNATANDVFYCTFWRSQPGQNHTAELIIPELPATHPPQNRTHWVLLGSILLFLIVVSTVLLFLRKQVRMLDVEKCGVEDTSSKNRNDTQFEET

T1 sequence (Q9NZQ7 19-290): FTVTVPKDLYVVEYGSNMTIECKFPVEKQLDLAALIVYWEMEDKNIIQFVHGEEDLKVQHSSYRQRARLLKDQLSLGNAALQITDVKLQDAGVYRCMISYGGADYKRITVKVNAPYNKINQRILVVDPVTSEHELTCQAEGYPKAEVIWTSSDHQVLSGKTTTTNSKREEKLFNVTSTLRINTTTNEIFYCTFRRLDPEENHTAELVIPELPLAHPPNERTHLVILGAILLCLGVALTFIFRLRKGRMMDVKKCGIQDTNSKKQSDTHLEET

B1: W3156-AP3R2-1A3-z12-hIgG1 (Fc fusion)
chain: EVQLVESGGGLVQPGGSLRLSCAASGHFSNLAVNWFRQAPGKERELVAGILWSGGSTFYADSVKGRFTISRGNAENMLYLQMNSLRAEDTAVYYCNTGTNWGQGTLVTVSS
notes: tested as hIgG1 format; also called 抗PD-L1 VHH抗体; 亲本抗体 (PD-L1 arm); not shown: hIgG1 part (hinge/Fc) of the VHH-hIgG1 format
- binding result [1]: binds
- binding result [2]: binds
